# How the values were obtained:
# [1] = test system: T1, OC[C@H]1O[C@@](CO)(O[C@H]2O[C@H](CO)[C@@H](O)[C@H](O)[C@H]2O)[C@@H](O)[C@@H]1O; experiment: SUS (sucrose synthase) enzyme assay (purified recombinant protein); type: biochemical, Eucalyptus grandis; conditions: other: E. grandis SUS; SEM 0.371
# T1 construct: wild type
# From the text: (§1) Sense constructs containing sequences including the coding regions for UGP (SEQ ID NO: 79) and SUS (SEQ ID NO: 105) from Eucalyptus grandis, and UGP (SEQ ID NO: 80) from Pinus radiata were inserted into the expression vector pET16b (Clontech Laboratories Inc, Palo Alto, Calif.). The resulting constructs were transformed into E. coli XL1-Blue (Stratagene) and induced to produce recombinant protein by the addition of IPTG. Purified proteins were obtained using Ni^2+ column chromatography (Janknecht et al., Proc. Natl. Acad. Sci. USA, 88:8972-8976, 1991).
# (§2) Enzyme assays for SUS (sucrose synthase) were performed using the methods described by Sebkova et al. Plant Physiol., 108:75-83, 1995. […] The KM^Sucrose of E. grandis is compared with the data reported by Delmer, J. Biol. Chem. 247:3822-3828, 1972 and Nakai et al., Biosci. Biotech. Biochem. 61:1500-1503, 1997.
# [2] = test system: T2, O=c1ccn([C@@H]2O[C@H](COP(=O)(O)OP(=O)(O)O)[C@@H](O)[C@H]2O)c(=O)[nH]1; experiment: as above; type: biochemical, Eucalyptus grandis; conditions: other: E. grandis SUS; SEM 0.003
# T2 construct: wild type
# From the text: as §1, §2
# Sequence of Eucalyptus grandis SUS (sucrose synthase), SEQ ID NO: 105 (DNA; protein SEQ ID NO: 106) (Eucalyptus grandis) (chain, as listed by the source): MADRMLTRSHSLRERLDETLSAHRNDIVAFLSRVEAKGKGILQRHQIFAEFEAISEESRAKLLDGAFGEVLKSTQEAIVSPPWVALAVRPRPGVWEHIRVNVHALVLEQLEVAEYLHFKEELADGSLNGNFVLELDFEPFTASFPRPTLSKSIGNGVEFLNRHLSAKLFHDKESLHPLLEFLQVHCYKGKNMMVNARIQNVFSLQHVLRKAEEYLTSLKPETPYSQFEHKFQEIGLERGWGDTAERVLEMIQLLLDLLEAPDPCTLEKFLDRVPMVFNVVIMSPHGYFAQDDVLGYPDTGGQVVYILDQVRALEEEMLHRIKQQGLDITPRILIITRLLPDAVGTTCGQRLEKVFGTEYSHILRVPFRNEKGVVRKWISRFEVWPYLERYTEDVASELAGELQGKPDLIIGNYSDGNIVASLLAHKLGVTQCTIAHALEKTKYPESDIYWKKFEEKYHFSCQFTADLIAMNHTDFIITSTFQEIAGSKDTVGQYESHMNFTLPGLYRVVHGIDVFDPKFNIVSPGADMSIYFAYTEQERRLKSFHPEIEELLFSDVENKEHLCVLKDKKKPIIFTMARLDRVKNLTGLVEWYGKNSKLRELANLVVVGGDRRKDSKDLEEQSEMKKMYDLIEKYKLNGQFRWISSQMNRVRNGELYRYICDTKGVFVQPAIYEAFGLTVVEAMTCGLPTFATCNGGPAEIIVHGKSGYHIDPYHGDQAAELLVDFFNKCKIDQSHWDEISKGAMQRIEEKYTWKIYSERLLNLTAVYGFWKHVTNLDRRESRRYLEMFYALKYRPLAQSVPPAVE
substance,measurement,setting,value
"Eucalyptus grandis SUS (sucrose synthase), SEQ ID NO: 105 (DNA; protein SEQ ID NO: 106) (Eucalyptus grandis)",Km,[1],1650 µM
same,Km,[2],28 µM

# — patent publication US20030229922A1, “Materials and methods for the modification of plant cell wall polysaccharides” (GENESIS RESEARCH AND DEVELOPMENT CORPORATION LTD., priority 1998, published 2003)
